The data set can be described thus: soluble on expression in E. coli; label from the status in PepcDB or PDB records.
Take “MKTVRCSILGFGAIGQGVAEVLLMKKEYLESIGLEIIVVAVVDSRGATINPEGVDLADCLARKRTTGTVAIEKITGVEVIKSIDHDLVIETTPTNIVTGGAGLQNMFAAFEIGKDVITSNKGPLTLKYRELMEAAKVAGSSFRFEATVGGSMPIINLANEVLAGNRLKSIKGILNGTCNYILTRMLEERASYKDILAESMELGIAETDPTYDVDGIDTACKLVILANAIFGLNATYKDVEVTGITKITPEALEMAYERGHVIKLIGEVSRERIHVAPRLVPINHPLDVRGTLNVASIDTELAGEITVTGKGAGPVETASAILSDLIAIYGNQLEHHHHHH”: the “soluble on expression in E. coli” value is “soluble”. Consider “MSLEIGEKLRNLRIQKNLTQEELGERTDLSKGYISQLERDLSSPSMETFFSILEVLGVTPEQFFSQQPLEQKIVYNEEESTLYYDEEHGYELKWLIPASNEKEMEPVIITFDKNGEYKTFEPSLSETFIYVIDGSIRLTLGEATYIAKKGQTMYYQATEPHQISNNGRGKSRALIVATESYLEGGSHHHHHH”, for which the “soluble on expression in E. coli” value is “soluble”. In the case of “MKIYLMRHTSVLFNGNEHCYGFTDVDVRDTFEEEAAAACARLKGLDPEAVFTSPLQRAAKLAAFCGYPDAIRDDRLKEMNFGDWEGKPWEEILDTTDIEAFFRRYIDEPVSGGESQREQFERVRDFILEKKAAGYRSILIFCHGGVINCARTLVGQCTLESAFASLPPFGSLTELIL”, the “soluble on expression in E. coli” value was “not soluble”.

Consider “MSLYSVISKILNFILVKMSKSLYVIGKDNIPKDSKYVVTCTHESYNEVIMLGMALYPNQIHYMAKKELFKNKWIGKFLTSLNAFPVDRENPGPSTLKRPINLLKDNKTVGIFPTGSRTSQEGAPLKRGASTIAMLSKSPILPVAYVGPTKIHGLLTGQAYINIGKPIDINDLPKDLKRNERIDYITKEIETRTAKLQQELHEIVKSEGHHHHHH”, for which the “soluble on expression in E. coli” value is on record as “soluble”. Consider “MSLDTHSLRFSKEGTFQITVFSDLHFAEYENTAQGAKQDSRTAGVVRKVLQHEASTQLVVLNGDLISGYGTTSDNATRYLDQVLAPIQALGLPWAVTYGNHDNERFARSRELLDYESRTYPNYSLTRNMGPRDLEAGVSNYYLEVFAAETSHVPEMLLWFFDSRGGAQPHDWVHDSVVQWFIDTNANLTNKYNKAVPSIAFFHIPITATYDFQLYPGVDTSREPGINGEKVWWQGRGYDGKTGHDLKFMAALSATEGMLATFSGHDHDNDWCFKWKSPSATSSSAGLNVCYGRHTGYGGYGGLARGARQILLKQSTIKDEVATWIRLEDGLVPENVTLNATYGQDEEGHHHHHH”, for which the “soluble on expression in E. coli” value was “not soluble”.

With “MGHHHHHHHHSSGHIEGRHMAHLLIVNVASHGLILPTLTVVTELVRRGHRVSYVTAGGFAEPVRAAGATVVPYQSEIIDADAAEVFGSDDLGVRPHLMYLRENVSVLRATAEALDGDVPDLVLYDDFPFIAGQLLAARWRRPAVRLSAAFASNEHYSFSQDMVTLAGTIDPLDLPVFRDTLRDLLAEHGLSRSVVDCWNHVEQLNLVFVPKAFQIAGDTFDDRFVFVGPCFDDRRFLGEWTRPADDLPVVLVSLGTTFNDRPGFFRDCARAFDGQPWHVVMTLGGQVDPAALGDLPPNVEAHRWVPHVKVLEQATVCVTHGGMGTLMEALYWGRPLVVVPQSFDVQPMARRVDQLGLGAVLPGEKADGDTLLAAVGAVAADPALLARVEAMRGHVRRAGGAARAADAVEAYLARAR”, the “soluble on expression in E. coli” value is “soluble”. For “MSSKNSLSDKIKITFQYIMPKHAISRLVGKLAAAKMGWLTTKLISMFIKAYGINMNEAKLKKASDFDTFNNFFTRELEEGARIIDNDENTICYPVDGAISQQGDIIDGQLIQAKGFNYSVTSLLGGDEKTAAPFQGGKFSCIYLAPKDYHRIHMPMAATLREMIYVPGELFSVNPLTAQNVPDLFARNERVVAIFDTEMGELAMVLVGATIVASIETTWAGTITPPAGKDIFRWQYPKDGADAITFEKGDEMGRFKLGSTVVSTFAPNMISEFATDAGPGTVTRLGEIYAALDKSASLEHHHHHH”, the “soluble on expression in E. coli” value is listed as “not soluble”. Take “MEKYIKEQRSICDKYKAEYVESPNDLKLGIAQNVKDGIAPINGLRMPIENGTTGWYIWAGEEMGTEEDFFLPLHVQHIDEWAPEIKKYLGLPPGWRFLIAGDYEDVWYDPNLFDEDLEEDADEWEENMLQEYGWYMHSILAEDIDGIHANYHTHGLRDNFNHQDLQIALNMDPEVAHSVFCTIIEEIKSGKKFEQGIEYTNIIEGYPIIMKSFVEMDREVLRVLLPDERGILPTRPECDECYKTQLDDIEES”: the “soluble on expression in E. coli” value is on record as “not soluble”. For “MSIVMQLQDVAESTRLGPLSGEVRAGEILHLVGPNGAGKSTLLARMAGMTSGKGSIQFAGQPLEAWSATKLALHRAYLSQQQTPPFATPVWHYLTLHQHDKTRTELLNDVAGALALDDKLGRSTNQLSGGEWQRVRLAAVVLQITPQANPAGQLLLLDEPMNSLDVAQQSALDKILSALSQQGLAIVMSSHDLNHTLRHAHRAWLLKGGKMLASGRREEVLTPPNLAQAYGMNFRRLDIEGHRMLISTI”, the “soluble on expression in E. coli” value is “soluble”. “DIQMTQSPSSLSASVGDRVTITCQASQDITNHLNWYQQKPGKAPKLLIYDASNLETGVPSRFSGRGSGTHFTFTISSLQPADIATYYCQEYDYLPQTFGGGTKVEIK”: the “soluble on expression in E. coli” value is listed as “soluble”. Consider “MSDALLAPLNEAQRQAVLHFEGPALVVAGAGSGKTRTVVHRVAYLVARRGVFPSEILAVTFTNKAAEEMRERLRGLVPGAGEVWVSTFHAAALRILRVYGERVGLRPGFVVYDEDDQTALLKEVLKELALSARPGPIKALLDRAKNRGVGLKALLGELPEYYAGLSRGRLGDVLVRYQEALKAQGALDFGDILLYALRLLEEDEEVLRLVRKRARFIHVDEYQDTSPVQYRFTRLLAGEEANLMAVGDPDQGIYSFRAADIKNILDFTRDYPEARVYRLEENYRSTEAILRFANAVIVKNALRLEKALRPVKRGGEPVRLYRAEDAREEARFVAEEIARLGPPWDRYAVLYRTNAQSRLLEQALAGRGIPARVVGGVGFFERAEVKDLLAYARLALNPLDAVSLKRVLNTPPRGIGPATWARVQLLAQEKGLPPWEALKEAARTFSRPEPLRHFVALVEELQDLVFGPAEAFFRHLLEATDYPAYLREAYPEDAEDRLENVEELLRAAKEAEDLQDFLDRVALTAKAEEPAEAEGRVALMTLHNAKGLEFPVVFLVGVEEGLLPHRNSVSTLEGLEEERRLFYVGITRAQERLYLSHAEEREVYGRREPARPSRFLEEVEEGLYEVYDPYRRPPSPPPHRPRPGAFRGGERVVHPRFGPGTVVAAQGDEVTVHFEGFGLKRLSLKYAELKPA”, for which the “soluble on expression in E. coli” value is given as “soluble”. Under “GLGDAGSTPTTSAADGVPSDTSLTGSGGLHLPQQLEQYRGDIMDAAKATGVPPSVIAGQIWAESRGQLNAATTNVNGKADAGLMQVNADTFKSLQQQNPGLLGNDVNDSHTNIMAGALYLRDQNKEFGDMGAALRAYNSGPDKVNKADLSDTGGVGGSSYPADVLNFAKIIESGQGNLPA” stands “not soluble”. Under “MSLQNLSPTQREILLALTDLYNRQKRMIKSKEVADIIGKDEGTVRNIILSLKVLGLVESKPGPNGGYMPTLKAYEIINNPTLTPILDKLNLYKGMIETDIKVENIEIIDITNPSANRVLLKVEGDLRKLKIGDAVRLGPTPYSRLVIEGLILHLDENSKEIVVDVKRMISIPKEKVKNLISKKLIALKPETSLREASMIFYKEAIRGAPVINQDEKVVGILTTADIIKAFFEGNYTAKVSDYMKTNVISINENEDLLDAIRKMIIYNVGRLLVLDSNNKAVGIVTRTDILRSIAGLEGLWTTEGHHHHHH” stands “soluble”; under “MYRVLLSGAAGSGKGTIARMLVREFEPLGFNYFAAGDFIRDHIARGTEFGVRAQSFLNKGEHVPDSILNGAILAEMLKAGPRVVLDGYPRNMSQLKMVEEQAPLNLIVELKVPRKVLIDRLSKQLVHPASGRAYNLEVNPPKEEGKDDITGEPLFKRSTDQLEVARRRLEVYDKTENKVLDYYKKQNKCITMSGESSKAVFESVAEVMRRDLLTTTPRTAYA”, “not soluble”; under “MGSDKIHHHHHHMKKLIAIDLDGTLLNEKSTISEENTESLQRAQEAGMEVVIATGRAYFDVIDLLKPTGMHPWVIGANGATIHDPTGRRLLSIPLEHKQAIEILHWLEGKHFYYEVFSDEAIFTPQNGRELLAIEMDRLVSANPQTDLGTLSQAAAKQFSQTGFSYVSSYRDLLDTEVNIYNILAFSFDDQKLAKGWDRFKQTDNVTLVTSAEHNFELEHPLASKGNALTWLAKHLHIPLEHTVAIGDSMNDYSMITIAGYSIAMGNARAEIKQISHEVTLSNYEHGVSHSIERLLAAKRLGQN”, “not soluble”.

The record behind these values is the DeepSol protein solubility set.
